Assay [1] has as its target T1, His-TvMIF (T. vaginalis macrophage migration inhibitory factor) (Trichomonas vaginalis, UniProt A2DXT4).
T1 construct: gene TVAG_219770; ~15 kDa monomer; trimer in crystal (8ur2: dimer of trimers)
In words: X-ray crystal structure, co-crystallization, […] A. In kind it is binding. Conditions: 5 mM sodium pyruvate, pH 7.0 protein buffer, reservoir pH 8.5, 291 K; non-canonical site at Asp68, not the tautomerase site (blocked by N-terminal tag); possibly a crystallization artifact.

The target in assay [2] is N-terminally hexahistidine-tagged Trichomonas vaginalis macrophage migration inhibitory factor (Trichomonas vaginalis ATCC PRA-98/G3). In words: crystal structure; His-TvMIF co-crystallized with 5 mM sodium pyruvate, Morpheus B12, 291 K, space group I4(1) (PDB 8ur2); six monomers.
For assay [3] the target is unchanged. The assay can be described thus: crystal structure; His-TvMIF crystallized at 291 K by sitting-drop vapor diffusion; apo P4(1)2(1)2 form (PDB 8uz4) and I4(1)22 form from an attempt at co-crystallization with 5 mM sodium 4-hydroxyphenylpyruvate (PDB 8ur4); three monomers per asymmetric unit.

From publication PMC11614108, “Structures of Trichomonas vaginalis macrophage migratory inhibitory factor” (Acta Crystallographica Section F: Structural Biology …, 2024) come the findings set out here.

In the case of `CC(=O)C(=O)O` [pyruvate], the “X-ray crystal structure, co-crystallization, 1.90 A” value in assay [1] is “The Fo − Fc omit electron-density maps of PDB entry 8ur2 can be modeled with pyruvate”.

“N-terminally hexahistidine-tagged Trichomonas vaginalis macrophage migration inhibitory factor (natural protein)”: the values for the stoichiometry N in assay [2] and in assay [3] were 6 and 3, respectively.
